Patent publication US9322042B2, “Thermostable cellulases, and mutants thereof, capable of hydrolyzing cellulose in ionic liquid” (The Regents of the University of California, priority 2009, dated 2016)
Substitutions are numbered along the chain they refer to. Names may count otherwise.

B1: P2H8: T. maritima Cel5A cellulase mutant with D40N and L231R; SEQ ID NO: 2 (protein, listed as Thermotoga maritima)
chain: MGVDPFERNKILGRGINIGNALEAPNEGDWGVVIKDEFFNIIKEAGFSHVRIPIRWSTHAYAFPPYKIMDRFFKRVDEVINGALKRGLAVVINIHHYEELMNDPEEHKERFLALWKQIADRYKDYPETLFFEILNEPHGNLTPEKWNELLEEALKVIRSIDKKHTIIIGTAEWGGISALEKLSVPKWEKNSIVTIHYYNPFEFTHQGAEWVEGSEKWLGRKWGSPDDQKHRIEEFNFIEEWSKKNKRPIYIGEFGAYRKADLESRIKWTSFVVREMEKRRWSWAYWEFCSGFGVYDTLRKTWNKDLLEALIGGDSIE
B2: P8E4: T. maritima Cel5A cellulase mutant with A113V; SEQ ID NO: 5 (protein, listed as Thermotoga maritima)
chain: B1 chain with N40D, A113V, R231L
B3: P15H11: T. maritima Cel5A cellulase mutant with S177R; SEQ ID NO: 22 (protein, listed as Thermotoga maritima)
chain: B1 chain with N40D, S177R, R231L
B4: P1E3: T. maritima Cel5A cellulase mutant with E98A and E106D; SEQ ID NO: 1 (protein, listed as Thermotoga maritima)
chain: B1 chain with N40D, E98A, E106D, R231L
B5: P15B10: T. maritima Cel5A cellulase mutant with D29V and I92F; SEQ ID NO: 7 (protein, listed as Thermotoga maritima)
chain: B1 chain with D29V, N40D, I92F, R231L
B6: P13F6: T. maritima Cel5A cellulase mutant with E132D, N140S, E202K and K304N; SEQ ID NO: 6 (protein, listed as Thermotoga maritima)
chain: B1 chain with N40D, E132D, N140S, E202K, R231L, K304N
B7: P15G2: T. maritima Cel5A cellulase mutant with K35N, E209G and A256T; SEQ ID NO: 8 (protein, listed as Thermotoga maritima)
chain: B1 chain with K35N, N40D, E209G, R231L, A256T
B8: P4B5: T. maritima Cel5A cellulase mutant with K155N; SEQ ID NO: 4 (protein, listed as Thermotoga maritima)
chain: B1 chain with N40D, K155N, R231L
B9: P3D7: T. maritima Cel5A cellulase mutant with E308K; SEQ ID NO: 3 (protein, listed as Thermotoga maritima)
chain: B1 chain with N40D, R231L, E308K

Assay: Beta-1,4-endoglucanase (CMCase) activity assay of Cel5ATm mutants
Assay type: biochemical
Method: CMCase activity assay is carried out in 50 mM Bis-Tris-HCl buffer (pH 6.5) containing 1% carboxylmethylcellulose (CMC) and incubated at 75° C. for 30 min. Reducing sugars are analyzed by DNS method as described in Xiao Z, Storms R and Tsang A (2005) “Microplate-based carboxymethylcellulose assay for endoglucanase activity”, Anal. Biochem. 342: 176-178. Cellobiose is used as reducing sugars standard. 1 U is defined as enzyme amount to produce 1 μmol reducing sugars in one minute at optimal conditions.
5 μl supernatant is mixed with 35 μl sterile ddH2O and 40 μl 2% CMC in 100 mM Bis-Tris-HCl (pH 6.5) in 96-well PCR plates. These plates are incubated in thermocyclers at 75° C. for 30 min. 80 μl of DNS reagent is added (Ref 1), mixed and incubated at 95° C. for 5 min. The solution is cooled to 4° C. and transferred 100 μl of the products into 96-well plate for reading the ABS at 540 nm.
Clones from the mutant library are analyzed as described for the wild-type of Cel5ATm except that after transferring normal cultures into autoinduction medium, normal culture plates are added by sterile glycerol to 10%, mixed and stored at −80° C. for future investigation. The clones with endoglucanase activity larger than 120% of the wild-type are selected to express the enzymes in 5 ml culture and purified by Ni-NTA columns. Activity improvements are confirmed by detection of their specific activity (U/mg) and plasmids sequencing.

Molecule | improvement of cellulase activity over the wild-type T. maritima cellulase
B1 | about 40.56%
B2 | about 49.06%
B3 | about 35.98%
B4 | about 31.77%
B5 | about 33.79%
B6 | about 68.51%
B7 | about 66.92%
B8 | about 33.02%
B9 | about 78.76%
